{"source": "paper PMC8847575", "about": "“HSL1 and BAM1/2 impact epidermal cell development by sensing distinct signaling peptides” (Nature Communications, 2022)", "binders": {"B1": {"name": "CLE9 mature peptide (peptide, UniProt Q9FZE4 109-120, looked up)", "peptide": "RLV[Hyp]SG[Hyp]NPLHN", "notes": "CLE9 mature dodecapeptide, AT1G26600; printed residues R109, L110, V111, Hyp112, Ser113, Hyp115, Asn116; also called wild-type CLE9 peptide"}, "B2": {"name": "SERK1 (SOMATIC EMBRYOGENESIS RECEPTOR KINASE 1) ectodomain (domain or fragment)", "chain": "ASANLEGDALHTLRVTLVDPNNVLQSWDPTLVNPCTWFHVTCNNENSVIRVDLGNAELSGHLVPELGVLKNLQYLELYSNNITGPIPSNLGNLTNLVSLDLYLNSFSGPIPESLGKLSKLRFLRLNNNSLTGSIPMSLTNITTLQVLDLSNNRLSGSVPDNGSFSLFTPISFANNLDLCGPVTSHPCPGS"}, "B3": {"name": "CLE9^N116S peptide (peptide, UniProt Q9FZE4 109-120, looked up)", "peptide": "RLVPSGPSPLHN", "notes": "CLE9 mature dodecapeptide with Asn116 changed to Ser; also called Asn116^CLE9 to a Ser"}}, "key": {"[1]": {"target": "T1, SERK1 (SOMATIC EMBRYOGENESIS RECEPTOR KINASE 1) ectodomain (Arabidopsis, UniProt Q94AG2 24-213)", "T1 construct": "SERK1 ectodomain, Arabidopsis, residues 24-213, AT1G71830; codon optimised; secreted with an azurocidin or Drosophila BiP signal peptide; also called co-receptor SERK1; source: Trichoplusia ni Tnao38 cells (baculovirus), secreted, purified (Ni2+, Strep-Tactin, TEV cleavage, second Ni2+, SEC)", "T1 sequence (looked up)": "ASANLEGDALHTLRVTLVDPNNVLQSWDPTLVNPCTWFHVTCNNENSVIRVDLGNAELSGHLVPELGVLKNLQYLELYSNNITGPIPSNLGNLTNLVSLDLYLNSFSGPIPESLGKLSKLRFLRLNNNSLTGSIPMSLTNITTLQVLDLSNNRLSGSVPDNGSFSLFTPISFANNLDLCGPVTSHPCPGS", "experiment": "crystal structure; HSL1-CLE9-SERK1, mixed 1:1:1.5; 0.2 M K/Na tartrate, 20% PEG 3350; 2.87 Å", "settings": "both partners purified"}, "[2]": {"target": "T2, BAM1 (BARELY ANY MERISTEM 1) ectodomain (Arabidopsis, UniProt O49545 20-637)", "T2 construct": "BAM1 LRR receptor kinase ectodomain, Arabidopsis, residues 20-637, AT5G65700; codon optimised; secreted with an azurocidin or Drosophila BiP signal peptide; also called BAM1 extracellular domain; BAM1 LRR ectodomain; source: Trichoplusia ni Tnao38 cells (baculovirus), secreted, purified (Ni2+, Strep-Tactin, TEV cleavage, second Ni2+, SEC)", "T2 sequence (looked up)": "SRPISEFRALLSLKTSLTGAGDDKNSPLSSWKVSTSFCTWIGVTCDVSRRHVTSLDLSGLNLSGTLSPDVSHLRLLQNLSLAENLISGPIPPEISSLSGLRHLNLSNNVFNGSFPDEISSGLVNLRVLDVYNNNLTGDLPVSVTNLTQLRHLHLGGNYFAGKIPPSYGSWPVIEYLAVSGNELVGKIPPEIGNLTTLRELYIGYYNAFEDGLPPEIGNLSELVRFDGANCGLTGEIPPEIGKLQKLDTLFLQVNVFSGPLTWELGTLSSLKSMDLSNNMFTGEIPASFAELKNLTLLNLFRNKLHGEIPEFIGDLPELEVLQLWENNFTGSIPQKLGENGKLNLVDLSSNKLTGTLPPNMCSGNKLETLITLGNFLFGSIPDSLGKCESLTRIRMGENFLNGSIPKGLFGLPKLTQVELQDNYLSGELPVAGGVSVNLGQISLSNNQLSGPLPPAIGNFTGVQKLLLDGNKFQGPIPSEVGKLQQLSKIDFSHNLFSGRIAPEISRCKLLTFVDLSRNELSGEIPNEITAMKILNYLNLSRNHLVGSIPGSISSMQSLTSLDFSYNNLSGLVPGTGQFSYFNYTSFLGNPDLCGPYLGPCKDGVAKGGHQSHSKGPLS", "experiment": "ITC; peptide (75 to 600 µM) injected into 10 to 30 µM HSL1 or BAM1 ectodomain in the cell; 25 °C; 20 mM sodium citrate pH 5.0, 150 mM NaCl; N fitted to 1", "settings": "both partners purified"}, "[3]": {"target": "T3, HSL1 (HAESA-LIKE 1) ectodomain (Arabidopsis, UniProt Q9SGP2 17-618)", "T3 chain": "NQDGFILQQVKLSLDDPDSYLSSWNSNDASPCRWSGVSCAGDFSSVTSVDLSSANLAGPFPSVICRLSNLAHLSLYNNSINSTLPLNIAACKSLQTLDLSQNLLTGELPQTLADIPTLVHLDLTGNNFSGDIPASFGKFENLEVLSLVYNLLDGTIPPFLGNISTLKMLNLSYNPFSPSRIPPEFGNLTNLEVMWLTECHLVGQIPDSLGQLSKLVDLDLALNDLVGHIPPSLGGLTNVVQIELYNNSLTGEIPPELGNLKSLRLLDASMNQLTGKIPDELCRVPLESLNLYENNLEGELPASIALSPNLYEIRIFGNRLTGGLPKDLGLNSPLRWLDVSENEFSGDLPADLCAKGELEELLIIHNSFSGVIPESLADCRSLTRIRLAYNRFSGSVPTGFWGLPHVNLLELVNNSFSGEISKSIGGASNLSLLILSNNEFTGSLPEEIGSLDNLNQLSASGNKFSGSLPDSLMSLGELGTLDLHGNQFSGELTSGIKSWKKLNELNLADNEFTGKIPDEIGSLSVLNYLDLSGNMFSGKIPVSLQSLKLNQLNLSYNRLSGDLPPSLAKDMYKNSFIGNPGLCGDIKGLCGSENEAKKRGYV", "experiment": "ITC; with IDL4"}, "[4]": {"target": "T4, biotinylated HSL1 ectodomain with Avi-tag (Arabidopsis, UniProt Q9SGP2 17-618, biotin on the Avi-tag (BirA))", "T4 chain": "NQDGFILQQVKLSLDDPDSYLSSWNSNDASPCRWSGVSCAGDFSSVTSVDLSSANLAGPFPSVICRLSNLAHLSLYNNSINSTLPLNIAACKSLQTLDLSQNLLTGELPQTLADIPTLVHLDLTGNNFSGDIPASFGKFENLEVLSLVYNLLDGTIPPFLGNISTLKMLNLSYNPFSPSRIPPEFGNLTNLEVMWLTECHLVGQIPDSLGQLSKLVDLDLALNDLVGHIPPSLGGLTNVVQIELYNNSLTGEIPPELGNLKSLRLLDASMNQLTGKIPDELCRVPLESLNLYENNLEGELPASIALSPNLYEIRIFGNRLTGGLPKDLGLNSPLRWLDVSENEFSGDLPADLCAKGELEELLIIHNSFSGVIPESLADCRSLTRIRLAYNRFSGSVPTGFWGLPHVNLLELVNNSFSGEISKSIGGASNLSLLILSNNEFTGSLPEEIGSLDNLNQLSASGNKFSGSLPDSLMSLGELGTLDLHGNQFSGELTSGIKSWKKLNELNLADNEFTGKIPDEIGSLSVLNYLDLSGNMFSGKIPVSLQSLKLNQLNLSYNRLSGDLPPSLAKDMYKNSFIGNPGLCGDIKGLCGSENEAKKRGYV", "experiment": "GCI, with IDL1"}, "[5]": {"target": "T3, HSL1 (HAESA-LIKE 1) ectodomain", "experiment": "ITC; with IDL2"}, "[6]": {"target": "T4, biotinylated HSL1 ectodomain with …", "experiment": "GCI, with IDL1"}, "[7]": {"target": "T4, biotinylated HSL1 ectodomain with …", "experiment": "in presence of IDL4"}, "[8]": {"target": "T3, HSL1 (HAESA-LIKE 1) ectodomain", "experiment": "ITC; with IDA"}, "[9]": {"target": "T4, biotinylated HSL1 ectodomain with …", "experiment": "GCI, with IDL4"}, "[10]": {"target": "T3, HSL1 (HAESA-LIKE 1) ectodomain", "experiment": "ITC; with IDL3"}, "[11]": {"target": "T4, biotinylated HSL1 ectodomain with …", "experiment": "GCI, with IDL3"}, "[12]": {"target": "T3, HSL1 (HAESA-LIKE 1) ectodomain", "experiment": "ITC; with IDL1"}, "[13]": {"target": "T4, biotinylated HSL1 ectodomain with …", "experiment": "in presence of IDL2"}, "[14]": {"target": "T4, biotinylated HSL1 ectodomain with …", "experiment": "GCI, with IDL3"}, "[15]": {"target": "T4, biotinylated HSL1 ectodomain with …", "experiment": "in presence of IDL1"}, "[16]": {"target": "T4, biotinylated HSL1 ectodomain with …", "experiment": "in presence of IDL1"}, "[17]": {"target": "T4, biotinylated HSL1 ectodomain with …", "experiment": "in presence of IDL3"}, "[18]": {"target": "T4, biotinylated HSL1 ectodomain with …", "experiment": "GCI, with IDA"}, "[19]": {"target": "T3, HSL1 (HAESA-LIKE 1) ectodomain", "experiment": "ITC; with CLE9^N116S"}, "[20]": {"target": "T4, biotinylated HSL1 ectodomain with …", "experiment": "in presence of IDL2"}, "[21]": {"target": "T4, biotinylated HSL1 ectodomain with …", "experiment": "in presence of IDL3"}, "[22]": {"target": "T4, biotinylated HSL1 ectodomain with …", "experiment": "in presence of IDL4"}, "[23]": {"target": "T4, biotinylated HSL1 ectodomain with …", "experiment": "GCI, with IDL2"}, "[24]": {"target": "T5, HSL1 (HAESA-LIKE 1) ectodomain (Arabidopsis, UniProt Q9SGP2 17-618)", "T5 construct": "HSL1 LRR receptor kinase ectodomain, Arabidopsis, residues 17-618, AT1G28440; codon optimised; secreted with an azurocidin or Drosophila BiP signal peptide; also called isolated HSL1 ectodomain; LRR-RK HSL1; source: Trichoplusia ni Tnao38 cells (baculovirus), secreted, purified (Ni2+, Strep-Tactin, TEV cleavage, second Ni2+, SEC)", "T5 sequence (looked up)": "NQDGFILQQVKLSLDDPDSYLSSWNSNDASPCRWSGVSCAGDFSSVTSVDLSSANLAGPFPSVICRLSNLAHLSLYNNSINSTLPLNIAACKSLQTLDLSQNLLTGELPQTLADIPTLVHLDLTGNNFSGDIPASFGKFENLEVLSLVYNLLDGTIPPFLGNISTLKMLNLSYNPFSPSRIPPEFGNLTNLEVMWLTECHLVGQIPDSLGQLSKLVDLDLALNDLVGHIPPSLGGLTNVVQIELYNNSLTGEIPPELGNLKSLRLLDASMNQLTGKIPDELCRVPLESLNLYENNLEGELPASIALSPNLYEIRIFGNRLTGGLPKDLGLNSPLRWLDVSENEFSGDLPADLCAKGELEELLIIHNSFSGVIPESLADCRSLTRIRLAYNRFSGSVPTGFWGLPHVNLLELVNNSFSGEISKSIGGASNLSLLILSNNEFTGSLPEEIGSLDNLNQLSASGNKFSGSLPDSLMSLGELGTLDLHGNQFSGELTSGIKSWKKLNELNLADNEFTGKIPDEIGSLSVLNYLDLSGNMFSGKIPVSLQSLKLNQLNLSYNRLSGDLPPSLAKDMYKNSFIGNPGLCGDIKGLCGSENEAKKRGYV", "experiment": "ITC; peptide (75 to 600 µM) injected into 10 to 30 µM HSL1 or BAM1 ectodomain in the cell; 25 °C; 20 mM sodium citrate pH 5.0, 150 mM NaCl; N fitted to 1", "settings": "both partners purified"}, "[25]": {"target": "T3, HSL1 (HAESA-LIKE 1) ectodomain", "experiment": "ITC"}}, "note": "Square brackets hold non-standard residues; d marks the D form. Ends that are not written are not given here. Hyp = O=C(O)[C@@H]1C[C@@H](O)CN1", "data": [{"binder": "B1", "values": [{"measurement": "binding result", "setting": "[1]", "result": "binds"}, {"measurement": "Kd", "setting": "[2]", "result": 100, "unit": "nM"}]}, {"binder": "B2", "values": [{"measurement": "Kd", "setting": "[3]", "result": 49, "unit": "nM"}, {"measurement": "Kd", "setting": "[4]", "result": 12.5, "unit": "nM"}, {"measurement": "Kd", "setting": "[5]", "result": 16, "unit": "nM"}, {"measurement": "koff", "setting": "[6]", "result": 0.00018, "unit": "s⁻¹"}, {"measurement": "Kd", "setting": "[7]", "result": 10.7, "unit": "nM"}, {"measurement": "Kd", "setting": "[8]", "result": 22, "unit": "nM"}, {"measurement": "Kd", "setting": "[9]", "result": 12.5, "unit": "nM"}, {"measurement": "Kd", "setting": "[10]", "result": 26, "unit": "nM"}, {"measurement": "Kd", "setting": "[11]", "result": 1, "unit": "nM"}, {"measurement": "Kd", "setting": "[12]", "result": 44, "unit": "nM"}, {"measurement": "Kd", "setting": "[13]", "result": 1.5, "unit": "nM"}, {"measurement": "koff", "setting": "[14]", "result": "3e-05", "unit": "s⁻¹"}, {"measurement": "koff", "setting": "[15]", "result": 0.00018, "unit": "s⁻¹"}, {"measurement": "Kd", "setting": "[16]", "result": 12.5, "unit": "nM"}, {"measurement": "Kd", "setting": "[17]", "result": 8.5, "unit": "nM"}, {"measurement": "Kd", "setting": "[18]", "result": 9, "unit": "nM"}, {"measurement": "Kd", "setting": "[19]", "result": 170, "unit": "nM"}, {"measurement": "koff", "setting": "[20]", "result": 0.00011, "unit": "s⁻¹"}, {"measurement": "koff", "setting": "[21]", "result": 0.00026, "unit": "s⁻¹"}, {"measurement": "koff", "setting": "[22]", "result": 0.00013, "unit": "s⁻¹"}, {"measurement": "Kd", "setting": "[23]", "result": 9, "unit": "nM"}]}, {"binder": "B3", "values": [{"measurement": "binding result", "setting": "[24]", "result": "binds"}, {"measurement": "Kd", "setting": "[25]", "result": 7.15, "unit": "µM"}]}]}
